T1: Ty3 RT (Ty3 retrotransposon, UniProt Q99315 536-1011)
T1 sequence: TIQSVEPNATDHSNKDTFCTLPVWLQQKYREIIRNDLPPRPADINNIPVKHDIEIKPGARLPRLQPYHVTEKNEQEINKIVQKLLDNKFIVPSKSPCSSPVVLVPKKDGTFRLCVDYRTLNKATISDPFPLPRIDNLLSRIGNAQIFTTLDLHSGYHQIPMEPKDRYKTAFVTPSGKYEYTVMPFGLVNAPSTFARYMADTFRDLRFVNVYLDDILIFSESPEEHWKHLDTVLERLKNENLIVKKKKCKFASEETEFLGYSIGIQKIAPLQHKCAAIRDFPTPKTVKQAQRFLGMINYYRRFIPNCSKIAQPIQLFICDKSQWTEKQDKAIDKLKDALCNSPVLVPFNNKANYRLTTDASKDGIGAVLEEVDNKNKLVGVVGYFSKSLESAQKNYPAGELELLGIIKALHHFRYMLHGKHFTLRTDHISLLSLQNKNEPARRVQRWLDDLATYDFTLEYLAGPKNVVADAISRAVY

T2: AMV RT (avian myeloblastosis virus, UniProt Q83133;Q83133 6-577;6-864)
T2 sequence 1: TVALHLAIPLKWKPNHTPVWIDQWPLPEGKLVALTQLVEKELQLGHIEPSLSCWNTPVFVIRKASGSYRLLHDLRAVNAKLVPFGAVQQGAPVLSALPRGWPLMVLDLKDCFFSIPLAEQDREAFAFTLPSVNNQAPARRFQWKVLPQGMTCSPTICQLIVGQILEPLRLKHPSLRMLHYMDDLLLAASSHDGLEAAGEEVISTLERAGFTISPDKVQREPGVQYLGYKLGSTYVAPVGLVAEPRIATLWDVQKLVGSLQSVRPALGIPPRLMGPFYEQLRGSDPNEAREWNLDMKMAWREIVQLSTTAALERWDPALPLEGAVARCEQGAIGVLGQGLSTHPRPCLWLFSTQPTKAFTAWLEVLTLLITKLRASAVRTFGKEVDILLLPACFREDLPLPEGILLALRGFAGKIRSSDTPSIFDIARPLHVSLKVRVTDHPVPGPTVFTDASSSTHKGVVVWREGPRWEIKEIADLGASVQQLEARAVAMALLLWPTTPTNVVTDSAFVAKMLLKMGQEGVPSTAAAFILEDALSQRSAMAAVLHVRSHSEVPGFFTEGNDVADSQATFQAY
T2 sequence 2: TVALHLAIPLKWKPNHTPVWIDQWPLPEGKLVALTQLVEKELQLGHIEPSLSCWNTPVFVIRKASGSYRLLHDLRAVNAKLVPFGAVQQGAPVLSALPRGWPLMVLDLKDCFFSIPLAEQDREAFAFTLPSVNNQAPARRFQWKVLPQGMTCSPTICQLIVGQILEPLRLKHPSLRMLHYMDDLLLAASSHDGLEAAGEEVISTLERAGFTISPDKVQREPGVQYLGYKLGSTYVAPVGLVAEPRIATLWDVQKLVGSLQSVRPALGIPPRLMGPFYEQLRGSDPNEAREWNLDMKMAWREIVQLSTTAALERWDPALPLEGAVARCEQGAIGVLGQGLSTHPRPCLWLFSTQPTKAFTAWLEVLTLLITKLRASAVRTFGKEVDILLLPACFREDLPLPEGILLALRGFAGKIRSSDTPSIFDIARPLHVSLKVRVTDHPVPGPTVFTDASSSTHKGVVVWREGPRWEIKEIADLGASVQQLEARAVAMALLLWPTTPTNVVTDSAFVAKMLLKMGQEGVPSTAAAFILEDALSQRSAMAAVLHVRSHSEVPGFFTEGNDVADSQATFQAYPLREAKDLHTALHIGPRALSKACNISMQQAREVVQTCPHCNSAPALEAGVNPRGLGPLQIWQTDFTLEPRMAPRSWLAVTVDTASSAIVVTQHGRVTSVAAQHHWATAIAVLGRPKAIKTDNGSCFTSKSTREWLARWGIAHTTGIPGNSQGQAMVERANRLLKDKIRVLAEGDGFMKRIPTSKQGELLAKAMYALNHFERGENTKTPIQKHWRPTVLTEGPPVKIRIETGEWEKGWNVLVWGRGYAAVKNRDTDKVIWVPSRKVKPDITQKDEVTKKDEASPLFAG

B1: HIV DNA PPT (41/45) (dsDNA)
DNA 1: GCCTGCAGGTCGACTCTAGACTTTTTAAAAGAAAAGGGGGG
DNA 2: CAGTCCCCCCTTTTCTTTTAAAAAGTCTAGAGTCGACCTGCAGGC
B2: AMV DNA PPT (dsDNA)
DNA 1: GCCTGCAGGTCGACTCTAGAGCTTTTGCATAGGGAGGGGGA
DNA 2: CATTTCCCCCTCCCTATGCAAAAGCTCTAGAGTCGACCTGCAGGC
B3: TY3 DNA PPT (dsDNA)
DNA 1: GCCTGCAGGTCGACTCTAGAGACAACCCTGAGAGAGAGGAA
DNA 2: CATCTTCCTCTCTCTCAGGGTTGTCTCTAGAGTCGACCTGCAGGC
B4: MuLV R14-1 (dsDNA)
DNA 1: GCCTGCAGGTCGACTCTAGAATAAGGAAGATCTGCGGGGGG
DNA 2: CTTTCCCCCCGCAGATCTTCCTTATTCTAGAGTCGACCTGCAGGC
B5: MuLV R14-2 (dsDNA)
DNA 1: GCCTGCAGGTCGACTCTAGACACCAGGACATGATGGCAGGA
DNA 2: ATCTTCCTGCCATCATGTCCTGGTGTCTAGAGTCGACCTGCAGGC
B6: MuLV R14-3 (dsDNA)
DNA 1: GCCTGCAGGTCGACTCTAGAGAGATGTAGCGCATGAAGGTA
DNA 2: CTTCTACCTTCATGCGCTACATCTCTCTAGAGTCGACCTGCAGGC
B7: MuLV DNA PPT (dsDNA)
DNA 1: GCCTGCAGGTCGACTCTAGATAGTCTCCAGAAAAAGGGGGG
DNA 2: CATTCCCCCCTTTTTCTGGAGACTATCTAGAGTCGACCTGCAGGC
B8: Control-1 (DNA:RNA)
?: AAAAGAAAAGCGCGC
DNA: CAGTGCGCGCTTTTCTTTT
modifications: strand 1 RNA, strand 2 DNA
B9: Control-2 (DNA:RNA)
RNA: AAUUCGAGCUCGGUA
DNA: CAGTTACCGAGCTCGAATT
modifications: strand 1 RNA, strand 2 DNA
B10: Ty3+3 RNA PPT (DNA:RNA)
RNA: CCUGAGCGCGCGGCC
DNA: CAGCGGCCGCGCGCTCAGG
modifications: strand 1 RNA, strand 2 DNA
B11: Ty3 RNA PPT (DNA:RNA)
?: GAGCGCGCGGCC
DNA: CAGCGGCCGCGCGCTCAGG
modifications: strand 1 RNA, strand 2 DNA
B12: AMV R12-2 (dsDNA)
DNA 1: GCCTGCAGGTCGACTCTAGATCACAAAGACCGGCGGGGTAA
DNA 2: ATCTTTACCCCGCCGGTCTTTGTGATCTAGAGTCGACCTGCAGGC
B13: AMV R12-3 (dsDNA)
DNA 1: GCCTGCAGGTCGACTCTAGACGGGCAGTGTAATGAAGGCCA
DNA 2: CTTCTGGCCTTCATTACACTGCCCGTCTAGAGTCGACCTGCAGGC

What follows are binders tested against MuLV RT (Moloney murine leukemia virus, UniProt P03355 660-1330) (assay: primer extension with trap; 6 mM Mg2+; Primer extension: 50 mM Tris-HCl pH 8.0, 80 mM KCl, 6 mM MgCl2, 1 mM DTT, 0.1 mg/ml BSA, room temperature, 1 nM duplex; filter binding: Tris-HCl pH 8.0, 80 mM K). Conditions: not given.
B1 was tested, and the Kd was 7.5 nM.
B2 was tested, and the Kd was 17 nM.
B3 showed a Kd of 46 nM.
B4 showed a Kd of 8.1 nM.
In the case of B5, the Kd is reported as 77 nM.
Work on B6 yielded a Kd of 53 nM.
B7 gave a Kd of 12 nM.

These binders were tested against T3, HIV RT (HIV, UniProt P04585;P04585 588-1147;588-1027) (assay: filter binding; no Mg2+; Primer extension: 50 mM Tris-HCl pH 8.0, 80 mM KCl, 6 mM MgCl2, 1 mM DTT, 0.1 mg/ml BSA, room temperature, 1 nM duplex; filter binding: Tris-HCl pH 8.0, 80 mM KCl, 1 mM DTT, without Mg2+ (wt) or 6 mM Mg2+ (E478Q), room temperature, 5 nM hybrid (Table 1 units nM inferred)). Conditions: protein: commercial; copies: 1;1; label: 5'-32P primer; 5' overhang 4 nt (template).
With B8 the Kd was 1760 ± 290 nM.
In the case of B9, the Kd is reported as 2610 ± 710 nM.

Same assay, conditions: protein: commercial; copies: 1;1; label: 5'-32P primer; 5' overhang 4 nt (template); printed U opposite A
In the case of B10, the Kd is reported as 900 ± 205 nM.

Same assay, conditions: protein: commercial; copies: 1;1; label: 5'-32P primer; template 5' overhang 4 nt, 3' overhang 3 nt
In the case of B11, the Kd is reported as 2380 ± 840 nM.

These binders were tested against T3, HIV RT (assay: primer extension with trap; 6 mM Mg2+; Primer extension: 50 mM Tris-HCl pH 8.0, 80 mM KCl, 6 mM MgCl2, 1 mM DTT, 0.1 mg/ml BSA, room temperature, 1 nM duplex; filter binding: Tris-HCl pH 8.0, 80 mM KCl, 1 mM DTT, without Mg2+ (wt) or 6 mM Mg2+ (E478Q), room temperature, 5 nM hybrid (Table 1 units nM inferred)). Conditions: protein: commercial; copies: 1;1; label: 5'-32P primer; 41 nt primer on 45 nt template, 5' overhang 4 nt (template).
Work on B1 yielded a Kd of 3.2 ± 0.2 nM.
B2 showed a Kd of 8.2 ± 2 nM.
Binder B3 has a Kd of 57 ± 10 nM.
Binder B7 has a Kd of 3.5 ± 0.5 nM.

What follows are binders tested against T1, Ty3 RT in the same assay as above. Conditions: protein: recombinant; label: 5'-32P primer; 41 nt primer on 45 nt template, 5' overhang 4 nt (template).
In the case of B1, the Kd is reported as 53 ± 12 nM.
B2 was tested, and the Kd was 58 ± 4 nM.
B3 gave a Kd of 84 ± 26 nM.
For B7, the Kd was 45 ± 4 nM.

The binders below were run against T2, AMV RT in the same assay as above. Conditions: protein: commercial; copies: 1;1; label: 5'-32P primer; 41 nt primer on 45 nt template, 5' overhang 4 nt (template).
Binder B1 has a Kd of 2.1 ± 0.4 nM.
In the case of B2, the Kd is reported as 1 ± 0.1 nM.
B3 gave a Kd of 12 ± 2 nM.
In the case of B12, the Kd is reported as 3.5 ± 0.1 nM.
With B13 the Kd was 6.8 ± 0.1 nM.
Binder B7 has a Kd of 2.6 ± 0.2 nM.

From publication PMC3407194, “Viral Reverse Transcriptases Show Selective High Affinity Binding to DNA-DNA Primer-Templates that Resemble the Polypurine Tract”
